Experimental findings from patent US20120009171A1 (SHIRE HUMAN GENETIC THERAPIES, published 2012) are described below.

This series concerns the molecule itself. Briefly: SEC-HPLC, mobile phase 100 mM sodium citrate pH 5.5 (self-association). As to the method:
Waters HPLC systems were used for size exclusion and reversed phase HPLC analyses. For initial SEC-HPLC analysis, 50 μg of rhASA was injected on to an Agilent Zorbax GF-250 column (4.6 mm×250 mm) and run isocratically at 0.24 mL/min using a mobile phase of 100 mM sodium citrate pH 5.5 (octomer detection) with a detection wavelength of 280 nm. The analyses were repeated using mobile phase conditions of 100 mM sodium citrate, pH 7.0 (dimer detection).
Analysis by size exclusion HPLC detected some degradation for the 2 week thermal stressed sample formulated in 5 mM sodium phosphate with 154 mM NaCl at pH 7.0. The degradation was more evident by SEC-HPLC using a pH 5.5 mobile phase condition which induces association of rhASA to an octamer.

B1: recombinant human arylsulfatase A (rhASA) (enzyme)
chain: RPPNIVLIFADDLGYGDLGCYGHPSSTTPNLDQLAAGGLRFTDFYVPVSLCTPSRAALLTGRLPVRMGMYPGVLVPSSRGGLPLEEVTVAEVLAARGYLTGMAGKWHLGVGPEGAFLPPHQGFHRFLGIPYSHDQGPCQNLTCFPPATPCDGGCDQGLVPIPLLANLSVEAQPPWLPGLEARYMAFAHDLMADAQRQDRPFFLYYASHHTHYPQFSGQSFAERSGRGPFGDSLMELDAAVGTLMTAIGDLGLLEETLVIFTADNGPETMRMSRGGCSGLLRCGKGTTYEGGVREPALAFWPGHIAPGVTHELASSLDLLPTLAALAGAPLPNVTLDGFDLSPLLLGTGKSPRQSLFFYPSYPDEVRGVFAVRTGKYKAHFFTQGSAHSDTTADPACHASSSLTAHEPPLLYDLSKDPGENYNLLGGVAGATPEVLQALKQLQLLKAQLDAAVTFGPSQVARGEDPALQICCHPGCTPRPACCHCPDPHA
notes: By SEC-HPLC it associates to an octamer at pH 5.5 and is seen as a dimer at pH 7.0; also called recombinantly-prepared human arylsulfatase A; human ASA
Take B1: the binding result is reported as “binds”.
